Data as given in patent US20240067748A1.

Experiments:
[1] = biological target: human Trop2 on cells (human) (UniProt P09758); assay: flow cytometry on BxPC-3 tumor cells; negative control
[2] = biological target: monkey Trop2 on CHO-K1 cells (monkey); assay: flow cytometry on CHO-K1/monkey Trop2 cells; negative control
[3] = biological target: monkey Trop2 on CHO-K1 cells (monkey); assay: flow cytometry on CHO-K1/monkey Trop2 cells (second run); negative control
[4] = biological target: human Trop2 on cells (human) (UniProt P09758); assay: flow cytometry on BxPC-3 tumor cells (second panel of the table); negative control

Sequence of monkey Trop2 on CHO-K1 cells (monkey) (A0A2K5 entry or part of it limits assumed): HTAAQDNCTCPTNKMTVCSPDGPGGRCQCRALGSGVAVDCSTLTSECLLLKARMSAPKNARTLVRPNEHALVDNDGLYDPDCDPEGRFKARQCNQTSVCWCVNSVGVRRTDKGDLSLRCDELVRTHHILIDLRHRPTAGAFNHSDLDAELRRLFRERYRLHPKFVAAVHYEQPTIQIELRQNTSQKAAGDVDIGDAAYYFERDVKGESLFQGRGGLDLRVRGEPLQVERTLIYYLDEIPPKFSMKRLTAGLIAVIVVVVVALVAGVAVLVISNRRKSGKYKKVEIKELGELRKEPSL
Sequence of human Trop2 on cells (human) (P09758 27-323): as the sequence (A0A2K5 entry or part of it limits assumed) above, with V36M, E46K, N67S, V204I, V266M, S272T counted along it

- Maximum MFI value [1]: 77 MFI
- EC50 [2]: 1.89 µM
- Maximum MFI value [2]: 277 MFI
- Maximum MFI value [3]: 109 MFI
- Maximum MFI value [4]: 670 MFI
Substance: hIgG1 (antibody)
